Results published in patent US11771829B2, “Systems and methods for liquid injection” (Massachusetts Institute of Technology, priority 2019, dated 2023).

What was measured:
swine stomach = test: Histology of swine stomach after L-SOMA injection; format: in vivo; details: swine stomach after L-SOMA epinephrine injection
Method: (§1) L-SOMA dosings were compared to subcutaneous or intramuscular dosings as positive controls. Using an endoscope, we placed L-SOMA devices into the stomachs of swine and allowed them to independently actuate. After 2 hours the devices were removed from the animal.

[1] = In vivo swine pharmacokinetics after L-SOMA, subcutaneous or endoscopic gavage dosing
Method: In vivo swine experiments were performed in which L-SOMA devices loaded with either an inactivated GLP-1 receptor agonist or fast acting insulin were prepared. L-SOMA dosing experiments were compared to subcutaneous dosing experiments and experiments where swine were dosed with the liquid formulation into the stomach lumen. Using an endoscope, L-SOMA devices were placed into the stomachs of swine and allowed to independently actuate. After 2 hours the devices were removed from the animal. Time 0 corresponds to the time at which the device was placed in the stomach and not the time that the device actuated. The swine dosed were partially fasted but contained a layer of gastric fluid and food approximately the same height as the L-SOMA capsule.
as §1
Insulin and GLP-1 generally have limited ability to traverse the stomach lining for systemic uptake when administered without a permeation enhancer or physical permeation enhancing device.

blood glucose = test: Blood glucose in swine after dosing; format: in vivo
Method: as §1

heart rate = details: swine; 0.24 mg; both intramuscular injection and L-SOMA groups
Method: as §1

[2] = Liquid formulation stability, two weeks at 40° C. and 75% relative humidity; format: physicochemical
Method: FIGS. 53A-53B show liquid formulation stability, according to one set of embodiments. Human Insulin (HI) and Semaglutide (Sema) formulations were placed inside of either an L-SOMA or a glass vial apparatus and were subjected to a 40° C. and 75% relative humidity environment for two weeks. (a) Purity loss and (b) high molecular weight protein (HMWP) formation were then measured. (Error=SD, n=3 device replicates, **P<0.01, ***P<0.001).
Additionally, the purity loss for the liquid formulation was higher than the purity loss for the solid formulation we previously reported using in the SOMA system. Optimization of the L-SOMA storage system and loaded liquid formulation will be required to ensure long term stability of the filled drug.

CNC[C@H](O)c1ccc(O)c(O)c1 [epinephrine]
H&E staining: necrosis or adverse effects elicited by the drug (swine stomach): no evidence of necrosis or adverse effects
uptake after endoscopic gavage (negative control) ([1]; in vivo): negligible uptake
plasma exposure of drug observed after administration ([1]; swine, in vivo): ≤ 15 min
blood glucose change (blood glucose; 0.24 mg, both intramuscular injection and L-SOMA groups): abrupt rise
heart rate change (heart rate): abrupt rise

adalimumab
uptake after endoscopic gavage (negative control) ([1]; in vivo): negligible uptake
drug in blood plasma after dosing ([1]; in vivo, sc): at least 3 days

recombinant human insulin: recombinant human insulin, 1 mg liquid dose
high molecular weight protein formation, L-SOMA system versus glass vial system [2]: greater
purity loss, L-SOMA system versus glass vial system [2]: greater
bioavailability, range ([1]; swine, L-SOMA dosed, 1 mg, two hour sampling period, n=8): 25%-81%
bioavailability, range ([1]; swine, dosed subcutaneously, insulin, n=3): 50.8%-66.2%
hypoglycemic onset (blood glucose; insulin 1 mg, L-SOMA (FIG. 47B) and subcutaneous (FIG. 47F)): immediate hypoglycemic onset

semaglutide
high molecular weight protein formation, L-SOMA system versus glass vial system [2]: greater
purity loss, L-SOMA system versus glass vial system [2]: greater
